In paper PMC3814152 (Molecular Biology of the Cell, 2013):

Target: the molecule itself
Assay: SEC

B1: Mzt1-His6 (natural protein)
chain: MSESTKETIEVLYEIGTLLGTELDKTTLSLCISLCENNVHPEAIAQIIREIRMAQEQTVDTEPS
- stoichiometry N: ~12
